Usually EC50 stands for the concentration that produces a half-maximal response.

We go through four molecules from US20220348665A1.

Where a chain is given by its changes, count along the chain named.

The target of assay [1] is human IGF1R extracellular domain, recombinant, His tag at C-terminus (human) (UniProt P08069). Put plainly: ELISA on ECD of IGF1R, bispecific form. On the technique in general: ELISA stands for enzyme-linked immunosorbent assay.
Assay [2] has as its target human IGF1R, endogenous, on the surface of breast cancer cell lines (MCF-7, JIMT-1, BT474) (human) (UniProt P08069). The experiment in a line: FACS on MCF-7 cells, antibody 10 ug/mL (2nd Ab only 2.86, not treated 1.88).
The target is the same in assay [3]. Put plainly: FACS on MCF-7 cells (2nd Ab only 2.92).
For assay [4], the target named is human IGF1R extracellular domain, recombinant, His tag at C-terminus (human) (UniProt P08069). The experiment in a line: SPR (Biacore T200), His-tagged human IGF1R ECD captured by anti-his antibody on CM4 chip, bivalent model. On the technique in general: Surface plasmon resonance follows binding to a sensor surface in real time, without labels.

B1: Hu3A9-C04 (bispecific antibody form of 1564 affinity variant C04) (bispecific antibody, part only; not given: humanized 3A9 IgG carrier, linker, not shown: another chain or arm of the molecule; a dimerising Fc or GST; large carriers; small tags and cut ends)
scFv: QSVLTQPPSASGTPGQRVTISCTGSSSNIGSNDVSWYQQLPGTAPKLLIYANSNRPSGVSDRFSGSKSGTSASLAISGLRSEDEADYYCGAWEQWLNGYVFGCGTKLTVLGGGGSGGGGSGGGGSGGGGSEVQLLESGGGLVQPGGSLRLSCAASGFTFSSYDMSWVRQAPGKCLEWVSAISYDNGNTYYADSVKGRFTISRDNSKNTLYLQMNSLRAEDTAVYYCAKGVLTTLMNWFDYWGQGTLVTVSS
Consider B1, for which the EC50 in assay [1] is 0.107 nM. Further, in assay [2], the GeoMean, Internalization at 37° C. was 7.23.

B2: hu3A9x1564_F06 (bispecific antibody: humanized 3A9 IgG with F06 scFv) (bispecific antibody, part only; not given: humanized 3A9 IgG carrier, linker, not shown: another chain or arm of the molecule; a dimerising Fc or GST; large carriers; small tags and cut ends)
scFv: B1 scFv with A91T, E93A, Q94G, W95S
As to B2, the GeoMean, Internalization at 37° C. in assay [2] was 19.8.

B3: C04 (1564 affinity variant) in bispecific antibody form, backbone not stated (bispecific antibody, not shown: small tags and cut ends)
scFv: B1 scFv
Regarding B3, the GEOmean in assay [3] was determined as 3.88.

B4: F06 IgG (anti-IGF1R clone F06, full IgG1 form) (antibody, from a related filing, V domains shown)
VH: EVQLLESGGGLVQPGGSLRLSCAASGFTFSSYDMSWVRQAPGKGLEWVSAISYDNGNTYYADSVKGRFTISRDNSKNTLYLQMNSLRAEDTAVYYCAKGVLTTLMNWFDYWGQGTLVTVSS
VL: QSVLTQPPSASGTPGQRVTISCTGSSSNIGSNDVSWYQQLPGTAPKLLIYANSNRPSGVPDRFSGSKSGTSASLAISGLRSEDEADYYCGTWAGSLNGYVFGGGTKLTVL
Regarding B4, the Kd in assay [4] is 478 nM.
